Measured values as given in patent US20090093061.

System: GroEL having Aspartate 490 substituted with Cysteine, biotinylated and conjugated onto NeutrAvidin beads

In the case of mitochondrial malate dehydrogenase, the “refolding of denatured mMDH (conversion of NADH to NAD+ in the presence of oxaloacetate, OD at 340 nm)” value is reported as “positive GroEL-490 activity was confirmed by a reduction in OD at 340 nm with respect to the control”.
